Measured values reported in PMC10576006, “Structural insights into the complex of oncogenic KRas4B^G12V and Rgl2, a RalA/B activator” (Life Science Alliance, 2023).

Target: T1, human wildtype KRas4B 1-169 (C-terminal truncated) (human, UniProt P01116-2 1-169)
T1 construct: human wildtype KRas4B isoform, residues 1-169, lacking the C-terminal hyper-variable region; Loaded with GTP for BLI; also called KRas4B^WT; KRas (WT); source: E. coli DE3 Rosetta, purified (Ni-sepharose, TEV cleavage, SEC); not shown: His6, N-terminal, cleaved
Assay: BLI; Octet R8; GST fusion (0.7 uM) immobilised on anti-GST biosensors; GTP-loaded KRas4B as analyte (200 nM-15 uM for Rgl2^RA, 20 nM-5 uM for BRAF^RBD); GF buffer (20 mM Tris pH 7.65, 100 mM NaCl, 5 mM MgCl2, 1 mM TCEP); 20°C; double referencing; 1:1 binding model
Settings: both partners purified

Kd: ~1480 nM
B1: GST-Rgl2^RA (Ras association domain of human Rgl2, residues 643-740, fused with GST) (domain or fragment, UniProt O15211 643-740, looked up)
chain: GPGASDCRIIRVQMELGEDGSVYKSILVTSQDKAPSVISRVLKKNNRDSAVASEYELVQLLPGERELTIPASANVFYAMDGASHDFLLRQRRRSSTAT
notes: human Rgl2, residues 643-740, holding the Ras-associating (RA) domain (648-735 in UniProt O15211); A TEV site lies between GST and Rgl2^RA (vector pLEICS2); source: E. coli DE3 Rosetta, purified (glutathione beads, SEC); not shown: GST, N-terminal, kept
